Results on 2 molecules are retold here after PMC10766600 (2024).

The labels stand for the following.
B1: bacteriophage T5 capsid-like particles (T5 CLPs) (complex)
chain: AVNQSSSVEVSSESYETIFSQRIIRDLQKELVVGALFEELPMSSKILTMLVEPDAGKATWVAASTYGTDTTTGEEVKGALKEIHFSTYKLAAKSFITDETEEDAIFSLLPLLRKRLIEAHAVSIEEAFMTGDGSGKPKGLLTLASEDSAKVVTEAKADGSVLVTAKTISKLRRKLGRHGLKLSKLVLIVSMDAYYDLLEDEEWQDVAQVGNDSVKLQGQVGRIYGLPVVVSEYFPAKANSAEFAVIVYKDNFVMPRQRAVTVERERQAGKQRDAYYVTQRVNLQRYFANGVVSGTYAAS
B2: decoration protein pb10 of bacteriophage T5, full length (natural protein)
chain: MIDYSGLRTIFGEKLPESHIFFATVAAHKYVPSYAFLRRELGLSSAHTNRKVWKKFVEAYGKAIPPAPPAPPLTLSKDLTASMSVEEGAALTLSVTATGGTGPYTYAWTKDGSPIPDASGATYTKPTAAAEDAGSYKVTVTDSKQVSKDSTTCAVTVNPTVPGG
modifications: DNA-free expanded capsid lacking pb10 (T5 dec deletion, stAmN5). Mature pb8 after removal of the scaffolding domain; limits from the UniProt chain feature, matching the 299 aa entity of PDB 6OMC/6OMA. Minor capsid components (portal) not included.

“And” between values parts separate entries of the source, which are not always exact repeats. Identical values can stand only once.

Assay in all cases: SPR
(Surface plasmon resonance follows binding to a sensor surface in real time, without labels.)

Experiment [1] has as its target pO: full-length pb10 fused at its C-terminal end with ovalbumin (bacteriophage T5 | , UniProt Q6QGD6 1-164).
Experiment [2] concerns the target pNO: N-terminal capsid-binding domain pN of pb10 fused at its C-terminal end with ovalbumin (bacteriophage T5 | , UniProt Q6QGD6 1-73).
Experiment [3] has as its target pmC: full-length pb10 fused at its C-terminal end with mCherry (bacteriophage T5 | , UniProt Q6QGD6 1-164).
Experiment [4] addresses pNmC: N-terminal capsid-binding domain pN of pb10 fused at its C-terminal end with mCherry (bacteriophage T5 | , UniProt Q6QGD6 1-73).
Experiment [5] addresses B1.

By Kd is commonly meant the equilibrium constant for the complex coming apart. Low values mean a tighter complex, high ones a looser complex. The term koff denotes the rate constant with which the complex falls apart. Low values mean slow dissociation, high ones fast dissociation. On to B1, for which the dissociation constant (Kd) in experiment [1] was 2.3 pM; in experiment [2], 1.2 pM; in experiment [3], 1.4 pM; in experiment [4], 0.9 pM. The koff is 0.00035 s⁻¹ in experiment [1], 0.00023 s⁻¹ in experiment [2], 0.0002 s⁻¹ in experiment [3] and 0.00011 s⁻¹ in experiment [4].
Turning to B2, the koff in experiment [5] is 0.00019 s⁻¹ and 0.0003 s⁻¹.
